# ± gives the standard error. For some of these results: This sample holds only a part of the variants without activity.
# B1: glmS ribozyme (parent)
# chain: AUAAAAGCGCCAGAACUACAGAAAUGUAGUUGACGAGGAGGAGGUUUAUCGAAUUUUCGGCGGAUGCCUCCAAA
# Key:
# Details in all cases: with glucosamine-6-phosphate
# glucosamine-6-phosphate [1] = variants of: B1; assay: kcat; higher = faster cleavage; RNA array
# Procedure, shortened: (§1)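 Using a hybridised Cy3 probe at 37 °C, barcoded ribozyme variants transcribed in situ by E. coli RNA polymerase on sequenced MiSeq chips were monitored across tiles imaged over ~14 h. The flow contained glucosamine-6-phosphate from 40 μM to 10 mM in HEPES/KCl/Mg(OAc)2 buffer. Signals were normalised to baseline and to non-cleaving reference variants before per-tile medians were fit to one- or two-exponential decays to yield kobs. Weighted Michaelis–Menten fits across concentrations gave kcat and KM.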
# glucosamine-6-phosphate [2] = variants of: B1; assay: self-cleavage kobs at 40 uM GlcN6P; higher = faster cleavage; RNA array
# Procedure, shortened: as §1
# glucosamine-6-phosphate [3] = variants of: B1; assay: self-cleavage kobs at 640 uM GlcN6P; higher = faster cleavage; RNA array
# Procedure, shortened: as §1
# glucosamine-6-phosphate [4] = variants of: B1; assay: self-cleavage kobs at 2500 uM GlcN6P; higher = faster cleavage; RNA array
# Procedure, shortened: as §1
# glucosamine-6-phosphate [5] = variants of: B1; assay: self-cleavage kobs at 10000 uM GlcN6P; higher = faster cleavage; RNA array
# Procedure, shortened: as §1
# glucosamine-6-phosphate [6] = variants of: B1; assay: KM; higher = weaker cofactor use; RNA array
# Procedure, shortened: as §1
# glucosamine-6-phosphate [7] = variants of: B1; assay: self-cleavage kobs at 160 uM GlcN6P; higher = faster cleavage; RNA array
# Procedure, shortened: as §1
variant,measurement,setting,value
AUAAAAGCGCCAGAACUACAGAAAUGUAGUUGACGCGGAGGAGGUUUAUCGAAUUUUCGGCGGAUGCGUCCAAA [A36C C68G],kcat,glucosamine-6-phosphate [1],7.04e-05 ± 2.3e-05 s⁻¹
same,self-cleavage kobs at 40 uM GlcN6P,glucosamine-6-phosphate [2],3.7e-05 ± 1.3e-05 s⁻¹
same,self-cleavage kobs at 640 uM GlcN6P,glucosamine-6-phosphate [3],0.000107 ± 1.7e-05 s⁻¹
same,self-cleavage kobs at 2500 uM GlcN6P,glucosamine-6-phosphate [4],4.55e-05 ± 1.3e-05 s⁻¹
same,self-cleavage kobs at 10000 uM GlcN6P,glucosamine-6-phosphate [5],8.61e-05 ± 3.4e-05 s⁻¹
AUAAAUGCGCCAGAACUACAGAAAUGUAGUUGACGAGGAGGAGGUUUAUUGAAUUUUCGGCGGAUGCCUCCAAA [A6U C50U],kcat,glucosamine-6-phosphate [1],< 1e-05 s⁻¹
same,self-cleavage kobs at 2500 uM GlcN6P,glucosamine-6-phosphate [4],< 1e-05 s⁻¹
AUAAAAGCGCCAGAAAUACAGAAAUGUAGUUGACGAGGAGGAGGUUUAUCGAAUUUUCGGGGGAUGCCUCCAAA [C16A C61G],kcat,glucosamine-6-phosphate [1],1.13e-05 ± 1.7e-08 s⁻¹
same,KM,glucosamine-6-phosphate [6],158.6 ± 1.5 µM
AUAAAAGCGCCAGAACUACAGAAAUGUAGUUGACGAGGAGGAGGUUUAUCGAAUUUUCGGCGGAUGCUUCGAAA [C68U C71G],kcat,glucosamine-6-phosphate [1],1.73e-05 ± 3.6e-06 s⁻¹
same,self-cleavage kobs at 640 uM GlcN6P,glucosamine-6-phosphate [3],2.44e-05 ± 1e-05 s⁻¹
same,self-cleavage kobs at 2500 uM GlcN6P,glucosamine-6-phosphate [4],1.93e-05 ± 8.3e-06 s⁻¹
AUAAAAGCGCCAGAACUACAGAAAUGUAGUUGACGAGGAGGAGUUUUAUCGAAUUUUCGGCGGAUGCUUCCAAA [G44U C68U],kcat,glucosamine-6-phosphate [1],2.53e-05 ± 4.3e-07 s⁻¹
same,KM,glucosamine-6-phosphate [6],915 ± 100 µM
same,self-cleavage kobs at 40 uM GlcN6P,glucosamine-6-phosphate [2],< 1e-05 s⁻¹
same,self-cleavage kobs at 10000 uM GlcN6P,glucosamine-6-phosphate [5],2.31e-05 ± 7.7e-06 s⁻¹
AUAAAAGCGUCAGAACUACAGAAAUGUAGUUGACGAGGAGGAGGUUUAUCGCAUUUUCGGAGGAUGCCACCAAA [C10U A52C C61A U69A],kcat,glucosamine-6-phosphate [1],< 1e-05 s⁻¹
AUAAAAGCGCCAGAACUACAGAAAUGUAGUUAACGAGGAGGAGGGUUAUCGAAUUUUCGGCGGAUGCCUCCAAA [G32A U45G],kcat,glucosamine-6-phosphate [1],0.000591 ± 0.00017 s⁻¹
same,self-cleavage kobs at 640 uM GlcN6P,glucosamine-6-phosphate [3],0.000212 ± 4.3e-05 s⁻¹
same,self-cleavage kobs at 2500 uM GlcN6P,glucosamine-6-phosphate [4],0.000204 ± 5.3e-05 s⁻¹
same,self-cleavage kobs at 10000 uM GlcN6P,glucosamine-6-phosphate [5],0.000488 ± 5.2e-05 s⁻¹
AUAAAAGCGCCAGAACUACAGAAAUGUAGUUGACGAGGAGGAGGUUUUUCGAAUAUUCGGCGGAUGCCUCCAAA [A48U U55A],kcat,glucosamine-6-phosphate [1],0.000475 ± 0.0001 s⁻¹
same,KM,glucosamine-6-phosphate [6],1310 ± 530 µM
same,self-cleavage kobs at 160 uM GlcN6P,glucosamine-6-phosphate [7],4.63e-05 ± 1.3e-05 s⁻¹
same,self-cleavage kobs at 640 uM GlcN6P,glucosamine-6-phosphate [3],0.000183 ± 2.7e-05 s⁻¹
same,self-cleavage kobs at 2500 uM GlcN6P,glucosamine-6-phosphate [4],0.000269 ± 3.9e-05 s⁻¹
same,self-cleavage kobs at 10000 uM GlcN6P,glucosamine-6-phosphate [5],0.000532 ± 0.0001 s⁻¹
AUAAAAGCGCCAGAACUACAGAAAUGUAGUUGACGAGGCGGAGGUUUAUCGAAUUUUCGGCGGAUGCCUUCAAA [A39C C70U],kcat,glucosamine-6-phosphate [1],0.000652 ± 0.00018 s⁻¹
same,KM,glucosamine-6-phosphate [6],1210 ± 530 µM
same,self-cleavage kobs at 40 uM GlcN6P,glucosamine-6-phosphate [2],4.36e-05 ± 6.9e-06 s⁻¹
same,self-cleavage kobs at 160 uM GlcN6P,glucosamine-6-phosphate [7],7.31e-05 ± 9.7e-06 s⁻¹
same,self-cleavage kobs at 640 uM GlcN6P,glucosamine-6-phosphate [3],0.00019 ± 2.5e-05 s⁻¹
same,self-cleavage kobs at 2500 uM GlcN6P,glucosamine-6-phosphate [4],0.000461 ± 8.2e-05 s⁻¹
same,self-cleavage kobs at 10000 uM GlcN6P,glucosamine-6-phosphate [5],0.000616 ± 7.3e-05 s⁻¹
AUAAAAGCGCCAGAACUACAGAAAUGUAGUUGACGAGGUAGAGGUUUAUCGAAUUUUCGGCGGAUGCCUCCAAA [A39U G40A],kcat,glucosamine-6-phosphate [1],0.00855 ± 0.0042 s⁻¹
same,self-cleavage kobs at 40 uM GlcN6P,glucosamine-6-phosphate [2],0.000239 ± 2.5e-05 s⁻¹
same,self-cleavage kobs at 160 uM GlcN6P,glucosamine-6-phosphate [7],0.000664 ± 0.0001 s⁻¹
same,self-cleavage kobs at 640 uM GlcN6P,glucosamine-6-phosphate [3],0.00165 ± 0.00021 s⁻¹
same,self-cleavage kobs at 2500 uM GlcN6P,glucosamine-6-phosphate [4],0.00537 ± 0.0012 s⁻¹
same,self-cleavage kobs at 10000 uM GlcN6P,glucosamine-6-phosphate [5],0.00952 ± 0.0017 s⁻¹
AUAAAAGCGCCAGAACUACAGAAAUGUAGUUGACGAGGAGGAGGUUUAUCGAAUUUUAGGCGGAUGCCUCAAAA [C58A C71A],kcat,glucosamine-6-phosphate [1],5.74e-05 ± 1e-05 s⁻¹
same,self-cleavage kobs at 640 uM GlcN6P,glucosamine-6-phosphate [3],3.29e-05 ± 1.3e-05 s⁻¹
same,self-cleavage kobs at 2500 uM GlcN6P,glucosamine-6-phosphate [4],7.33e-05 ± 1.5e-05 s⁻¹
same,self-cleavage kobs at 10000 uM GlcN6P,glucosamine-6-phosphate [5],4.88e-05 ± 9.7e-06 s⁻¹
AUAAAAGCGCCAGAACUACAGAAAUGUAGUUAACGAGGAGGAGCUUUAUCGAAUUUUCGGCGGAUGUCUCCAAA [G32A G44C C67U],kcat,glucosamine-6-phosphate [1],0.000144 ± 5.9e-05 s⁻¹
same,self-cleavage kobs at 40 uM GlcN6P,glucosamine-6-phosphate [2],< 1e-05 s⁻¹
same,self-cleavage kobs at 2500 uM GlcN6P,glucosamine-6-phosphate [4],0.000148 ± 4.6e-05 s⁻¹
same,self-cleavage kobs at 10000 uM GlcN6P,glucosamine-6-phosphate [5],0.00011 ± 2.3e-05 s⁻¹
AUAAAAGCGCCAGAACUACAGAAAUGUAGUUGACGAGGUGGAGGUUUAUCGAAUUUUCGGCGGAUCCCUCCAAA [A39U G66C],kcat,glucosamine-6-phosphate [1],0.0109 ± 0.0036 s⁻¹
same,KM,glucosamine-6-phosphate [6],6420 ± 2800 µM
same,self-cleavage kobs at 40 uM GlcN6P,glucosamine-6-phosphate [2],5.39e-05 ± 1.3e-05 s⁻¹
same,self-cleavage kobs at 160 uM GlcN6P,glucosamine-6-phosphate [7],0.00046 ± 0.00012 s⁻¹
same,self-cleavage kobs at 640 uM GlcN6P,glucosamine-6-phosphate [3],0.00112 ± 0.00026 s⁻¹
same,self-cleavage kobs at 2500 uM GlcN6P,glucosamine-6-phosphate [4],0.00343 ± 0.00096 s⁻¹
same,self-cleavage kobs at 10000 uM GlcN6P,glucosamine-6-phosphate [5],0.0065 ± 0.001 s⁻¹
AUAAAAGCGCCAGAACUACAGAAAUGUACUUUUCGAGGAGGAGGUUUAUGGAAUUGUCGGCGGAUCCCCCCAAA [G29C G32U A33U C50G U56G G66C U69C],kcat,glucosamine-6-phosphate [1],1.64e-05 ± 5.6e-06 s⁻¹
AUAAAAGCGCCAGAACUACAGAAAUGUAGUUGACGAGGAGGAGGUAUAUCGAAUUUUCGGCGGAUGCCCCCAAA [U46A U69C],kcat,glucosamine-6-phosphate [1],0.00197 ± 0.00058 s⁻¹
same,KM,glucosamine-6-phosphate [6],1590 ± 770 µM
same,self-cleavage kobs at 40 uM GlcN6P,glucosamine-6-phosphate [2],9.53e-05 ± 1.9e-05 s⁻¹
same,self-cleavage kobs at 160 uM GlcN6P,glucosamine-6-phosphate [7],0.000133 ± 2.7e-05 s⁻¹
same,self-cleavage kobs at 640 uM GlcN6P,glucosamine-6-phosphate [3],0.00073 ± 0.00012 s⁻¹
same,self-cleavage kobs at 2500 uM GlcN6P,glucosamine-6-phosphate [4],0.00122 ± 0.00015 s⁻¹
same,self-cleavage kobs at 10000 uM GlcN6P,glucosamine-6-phosphate [5],0.00162 ± 0.00027 s⁻¹
AUAAAAGCGCCAGAACUACAGAAAUGUAGUUAACGAGGAGGAGGUUUAUCGAAUUUUCGGCGGAUGCCUCGAAA [G32A C71G],kcat,glucosamine-6-phosphate [1],0.000224 ± 3.5e-05 s⁻¹
same,KM,glucosamine-6-phosphate [6],1190 ± 450 µM
same,self-cleavage kobs at 160 uM GlcN6P,glucosamine-6-phosphate [7],5.06e-05 ± 1.5e-05 s⁻¹
same,self-cleavage kobs at 640 uM GlcN6P,glucosamine-6-phosphate [3],6.85e-05 ± 1.1e-05 s⁻¹
same,self-cleavage kobs at 2500 uM GlcN6P,glucosamine-6-phosphate [4],0.00018 ± 2.8e-05 s⁻¹
same,self-cleavage kobs at 10000 uM GlcN6P,glucosamine-6-phosphate [5],0.000195 ± 2.2e-05 s⁻¹
AUAAAAGCGCCACAACUACAGAAAUGUAGUUGACGAGGAGGAGGUUUAUCGAUUUUUCGGCGGAUGCCUCCAAA [G13C A53U],kcat,glucosamine-6-phosphate [1],0.000137 ± 1.4e-05 s⁻¹
same,KM,glucosamine-6-phosphate [6],5250 ± 1300 µM
same,self-cleavage kobs at 2500 uM GlcN6P,glucosamine-6-phosphate [4],4.93e-05 ± 1.6e-05 s⁻¹
same,self-cleavage kobs at 10000 uM GlcN6P,glucosamine-6-phosphate [5],8.95e-05 ± 1.3e-05 s⁻¹
AUAAAAGCGCCAGAACUACAGAAAUGUAGUUGACGUGGAGGAGGUUUAUCGAAUUUUCGGCGGAUCCCUCCAAA [A36U G66C],kcat,glucosamine-6-phosphate [1],< 1e-05 s⁻¹
same,self-cleavage kobs at 40 uM GlcN6P,glucosamine-6-phosphate [2],< 1e-05 s⁻¹
same,self-cleavage kobs at 160 uM GlcN6P,glucosamine-6-phosphate [7],< 1e-05 s⁻¹
